Usually Km stands for the concentration of substrate that gives half-maximal velocity. Usually kcat stands for the number of substrate molecules converted per active site and unit of time at saturation.

For 1 substance, Km and kcat results are on record in publication PMC5325305, “Structural and biochemical studies on Vibrio cholerae Hsp31 reveals a novel dimeric form and Glutathione-independent Glyoxalase activity” (PLoS ONE, 2017).

The test system of one data set is CC(=O)C=O. In words: purified protein. Particulars: glutathione-independent, 100 mM sodium phosphate pH 7.5, 1 mM EDTA, 1 mM DTT (printed DDT), 37°C, text lists Km and Vmax values in swapped order, assigned by unit.
Data set [1] concerns Cc1cc(=O)oc2cc(NC(=O)[C@H](C)N)ccc12. The data set is described as follows: purified protein. Particulars: pH 8.0, 37°C, 20 mM Tris, 1 mM dithiothreitol, 3% dimethyl sulfoxide.

On to VcHsp31 (Vibrio cholerae), for which, in the data set with CC(=O)C=O, the Km amounted to 250.8 µM and the kcat was determined as 0.6628 s⁻¹. In addition, in data set [1], the Km was found to be 112.5 µM and the kcat turned out to be 0.00128 s⁻¹.
